For assay [1], the target named is T1, His-StrepTagII-HRV3C-human VWF-CK-HA-tag (human).
T1 construct: it begins with the VWF signal peptide, whose limits were marked only by underlining that is lost in the text, so it was not cut off; The CK domain forms disulfide-linked homodimers (CK dimer); also called recombinant human CK domain; Human CK
T1 chain: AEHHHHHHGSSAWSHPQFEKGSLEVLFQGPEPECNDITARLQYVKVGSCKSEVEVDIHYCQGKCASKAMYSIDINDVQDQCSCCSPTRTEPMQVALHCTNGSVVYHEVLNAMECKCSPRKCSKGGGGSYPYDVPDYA
The experiment in a line: solution-phase equilibrium binding, free antibody by ELISA; apparent Kd; pH 7.4; mean ± SD, n=2. In general terms: In an ELISA, binding on a coated surface is turned into a signal by an enzyme label.

The target of assay [2] is T2, His-StrepTagII-HRV3C-cyno VWF-CK-HA-tag (cynomolgus monkey).
T2 construct: it begins with the VWF signal peptide, whose limits were marked only by underlining that is lost in the text, so it was not cut off; The CK domain forms disulfide-linked homodimers; also called recombinant cyno CK domain; Cyno CK
T2 chain: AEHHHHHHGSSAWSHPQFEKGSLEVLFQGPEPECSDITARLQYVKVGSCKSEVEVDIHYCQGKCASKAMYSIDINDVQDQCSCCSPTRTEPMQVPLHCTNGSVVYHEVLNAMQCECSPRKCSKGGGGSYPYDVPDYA
Described as above.

Assay [3] addresses T3, biotinylated human VWF cysteine knot (CK) domain construct (human, biotin on the in vitro biotinylation tag (residue not stated); one N-glycan).
T3 construct: Disulfide-linked homodimer; also called biotinylated human VWF CK domain; human VWF CK domain construct
T3 chain: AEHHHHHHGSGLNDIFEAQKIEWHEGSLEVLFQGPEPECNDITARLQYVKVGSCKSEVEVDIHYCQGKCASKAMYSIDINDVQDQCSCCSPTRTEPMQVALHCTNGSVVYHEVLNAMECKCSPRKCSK
The experiment in a line: SPR, scFv captured on anti-SV5, pH 7.4. (In general: In SPR one partner is held on a chip, and binding of the other changes the refractive index at the surface.)

This is an account of results in patent publication US20250154283A1 (published 2025).

B1: 399_Lib1 OA (antibody, human IgG4 S228P, kappa, F234A L235A)
heavy: QVQLVQSGAEVKKPGASVKVSCKVSGITFTSDYIHWVRQAPGKGLEWMGGMNPYSNKAIYAQKFQGRVTMTEDTSTDTAYMELSSLKSEDTAVYYCATGGLRIAARTSYFDYWGQGTLVTVSSASTKGPSVFPLAPCSRSTSESTAALGCLVKDYFPEPVTVSWNSGALTSGVHTFPAVLQSSGLYSLSSVVTVPSSSLGTKTYTCNVDHKPSNTKVDKRVESKYGPPCPPCPAPEAAGGPSVFLFPPKPKDTLMISRTPEVTCVVVDVSQEDPEVQFNWYVDGVEVHNAKTKPREEQFNSTYRVVSVLTVLHQDWLNGKEYKCKVSNKGLPSSIEKTISKAKGQPREPQVYTLPPSQEEMTKNQVSLSCAVKGFYPSDIAVEWESNGQPENNYKTTPPVLDSDGSFFLVSRLTVDKSRWQEGNVFSCSVMHEALHNHYTQKSLSLSLG
chain: ESKYGPPCPPCPAPEAAGGPSVFLFPPKPKDTLMISRTPEVTCVVVDVSQEDPEVQFNWYVDGVEVHNAKTKPREEQFNSTYRVVSVLTVLHQDWLNGKEYKCKVSNKGLPSSIEKTISKAKGQPREPQVYTLPPSQEEMTKNQVSLWCLVKGFYPSDIAVEWESNGQPENNYKTTPPVLDSDGSFFLYSRLTVDKSRWQEGNVFSCSVMHEALHNHYTQKSLSLSLG
light: DIQMTQSPSSVSASVGDRVTITCRASMDIAGSLAWYQQKPGKAPKLLIYDTSFRATGVPSRFSGSGSGTDFTLTISSLQPEDFANYYCQQYDNPPRLTFGGGTKVEIKRTVAAPSVFIFPPSDEQLKSGTASVVCLLNNFYPREAKVQWKVDNALQSGNSQESVTEQDSKDSTYSLSSTLTLSKADYEKHKVYACEVTHQGLSSPVTKSFNRGEC
Consider B1, for which the Kd in assay [1] is 13 nM; in assay [2], 16.8 nM.

B2: 5802_Lib4_scFv (scFv, not shown: small tags and cut ends)
scFv: QVQLQESGPGLVKPSQTLSLTCTVSGYSISSGDYHWSWIRQPPGKGLEWIGYINPSGSADYNPSLKSRVTMSVDTSKNQFSLKVNSVTAADTAVYYCARDGVAATYYYYYGMDVWGQGTTVTVSSSGGSTITSYNVYYTKLSSSGTEIVMTQSPATLSLSPGERATLSCRASHSIGSNLAWYQQKPGQAPRLLIYDATTRATGIPARFSGSGSGTDFTLTISSLEPEDFAVYYCQQAYSFPLTFGGGTKVEIK
Regarding B2, in assay [3], the binding result is listed as “binds”.

B3: Lib1_P1_A6_scFv (scFv, not shown: small tags and cut ends)
scFv: QVQLVQSGAEVKKPGASVKVSCKVSGSTFSNYAIHWVRQAPGKGLEWMGGIVPLSGTAIYAQKFQGRVTMTEDTSTDTAYMELSSLKSEDTAVYYCARDQGESSGWYAIYYGMDVWGQGTTVTVSSSGGSTITSYNVYYTKLSSSGTDIQMTQSPSSVSASVGDRVTITCRASQGIGTWLAWYQQKPGKAPKLLIYGSSSRASGVPSRFSGSGSGTDFTLTISSLQPEDFANYYCQQSYGKPTFGGGTKVEIK
For the molecule B3, the binding result in assay [3] is listed as “binds”.
